The values below come from patent US11015206B2, “Compositions and methods comprising sequences having hydroxyphenylpyruvate dioxygenase (HPPD) activity” (PIONEER HI-BRED INTERNATIONAL, INC., priority 2014, dated 2021).

The labels stand for the following.
B1: 340K: single substitution R340K in SEQ ID NO:2 (protein)
chain: MGPTPTATAAGAAVAAASAAEQAAFRLVGHRNFVRFNPRSDRFQTLAFHHVELWCADAASAAGRFSFALGVPLAARSDLSTGNSAHASLLLRSGSLSLLFTAPYAHGADAATAALPSFSAAAARRFAADHGLAVRAVALRVADAEDAFRASVAAGARPAFGPVDLGRGFRLAEVELYGDVVLRYVSYPDGAAGEPFLPGFEGVASPGAADYGLSRFDHIVGNVPELAPAAAYMAGFTGFHEFAEFTTEDVGTTESGLNSMALANNSENVLLPLNEPVHGTKRRSQIQTFLDHHGGPGVQHIALASDDVLRTLREMRARSAMGGFEFLPPPLSDYYDGVRKCAGDVLTEAQINECQELGVMVDRDDQGVLLQIFTKPVGDRPTFFLEIIQRIGCMEKDEKGQEYQKGGCGGFGKGNFGQLFKSIEDYEKSLEAKQAAAAATAQGS
modifications: Zea mays variant form created by artificial means.
B2: 387L: single substitution I387L in SEQ ID NO:2 (protein)
chain: B1 chain with K340R, I387L
modifications: Zea mays variant form created by artificial means.
B3: 434H: single substitution Q434H in SEQ ID NO:2 (protein)
chain: B1 chain with K340R, Q434H
modifications: Zea mays variant form created by artificial means.
B4: 434R: single substitution Q434R in SEQ ID NO:2 (protein)
chain: B1 chain with K340R, Q434R
modifications: Zea mays variant form created by artificial means.
B5: 211L: single substitution Y211L in SEQ ID NO:2 (protein)
chain: B1 chain with Y211L, K340R
modifications: Zea mays variant form created by artificial means.
B6: 206S: single substitution P206S in SEQ ID NO:2 (protein)
chain: B1 chain with P206S, K340R
modifications: Zea mays variant form created by artificial means.

Substitutions are numbered along the chain they refer to. Numbers in names are those of the source.

One data set deals with 4-hydroxyphenylpyruvate dioxygenase (HPPD). Briefly: HPPD activity coupled assay with HGD; substrate saturation kinetic parameters (kcat, KM). Format: biochemical, Z. mays. The following applies: Table 6. Put shortly:
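Coupled continuous assay: His-tagged HPPD (5 to 240 nM, E. coli-expressed, Ni-NTA-purified) with 50 nM P. aeruginosa HGD in 25 mM Hepes pH 7, 2 mM ascorbate, 10 μM FeSO4; maleylacetoacetate followed at 320 nm. KM and Vmax from Lineweaver-Burke fits over 3.33–100 μM HPP.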
Turning to B1, the Km is 2.41 µM.

B2: the Km came out at 2.46 µM.

As to B3, the Km amounted to 2.77 µM.

Turning to B4, the Km worked out at 2.74 µM.

In the case of B5, the Km turned out to be 3.2 µM.

As to B6, the Km is 3.36 µM.

The same data set, now with this note: Table 6; single substitutions in SEQ ID NO:2.
On to B1, for which the kcat worked out at 1.22 s⁻¹.

On to B2, for which the kcat is 1.24 s⁻¹.

For the molecule B3, the kcat was found to be 1.41 s⁻¹.

Regarding B4, the kcat came out at 1.35 s⁻¹.

On to B5, for which the kcat was found to be 1.29 s⁻¹.

Take B6: the kcat is 1.13 s⁻¹.

For another data set the test system is unchanged. The data set is described as follows: ON rate ratio: HPPD reaction rate with vs without inhibitor in the 70 to 90 second interval. Format: biochemical, Z. mays. To be noted: Table 5; tembotrione. A digest of the protocol: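 Time courses of HPPD reactions, 60 or 120 nM enzyme with 100 μM HPP substrate, run with and without 4 μM inhibitor (e.g. mesotrione, tembotrione). Value is the rate with inhibitor over rate without, taken over 70–90 s; higher ratio reflects slower kON.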
Take B1: the “ON ratio (parameters with tembotrione)” value came to 0.75.

As to B2, the “ON ratio (parameters with tembotrione)” value was 0.75.

Regarding B3, the “ON ratio (parameters with tembotrione)” value stood at 0.78.

As to B4, the “ON ratio (parameters with tembotrione)” value is 0.73.

As to B5, the “ON ratio (parameters with tembotrione)” value is on record as 0.77.

On to B6, for which the “ON ratio (parameters with tembotrione)” value came out at 0.75.

The next data set shares this test system. Briefly: OFF rate ratio: release of inhibitor from pre-formed enzyme-inhibitor complex. Format: biochemical, Z. mays. The following applies: Table 5; tembotrione. A digest of the protocol:
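HPPD (7.2 μM) pre-incubated 1 h at RT with inhibitor (8 μM), then diluted into 25 mM Hepes pH 7, 2 mM ascorbate, 10 μM FeSO4, 100 μM HPP, 50 nM HGD; A320 followed 12 min. Ratio = steady-state rate with inhibitor over initial rate of inhibitor-free enzyme.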
Consider B1, for which the “OFF ratio (parameters with tembotrione)” value is listed as 0.20.

On to B2, for which the “OFF ratio (parameters with tembotrione)” value turned out to be 0.19.

B3: the “OFF ratio (parameters with tembotrione)” value came to 0.13.

Turning to B4, the “OFF ratio (parameters with tembotrione)” value worked out at 0.15.

Regarding B5, the “OFF ratio (parameters with tembotrione)” value was determined as 0.17.

Take B6: the “OFF ratio (parameters with tembotrione)” value came out at 0.20.

The next data set has the same test system. The data set is described as follows: Insensitivity parameter (ON × OFF) and trait fitness (ON × OFF × kcat/KM or × kcat). Format: biochemical, Z. mays. To be noted: DKN (diketonitrile form of isoxaflutole). A digest of the protocol: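 Calculated, not measured directly: ON rate ratio × OFF rate ratio gives an insensitivity parameter serving as a KD surrogate.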
With B1, the “Insensitivity parameter, ON × OFF” value is 0.23.

B2: the “Insensitivity parameter, ON × OFF” value is recorded as 0.26.

Regarding B3, the “Insensitivity parameter, ON × OFF” value was 0.21.

For B4, the “Insensitivity parameter, ON × OFF” value stood at 0.18.

Take B5: the “Insensitivity parameter, ON × OFF” value was determined as 0.25.

In the case of B6, the “Insensitivity parameter, ON × OFF” value is 0.29.

The data set is the same for the next values; noted with them: DKN (isoxaflutole diketonitrile).
Regarding B1, the “ON × OFF × kcat/km fold vs Round 7, variant 9070” value (shortened to “ON × OFF × kcat/km fold”) turned out to be 2.2.

For the molecule B2, the “ON × OFF × kcat/km fold” value is on record as 1.6.

For the molecule B3, the “ON × OFF × kcat/km fold” value is listed as 1.4.

As for B4, the “ON × OFF × kcat/km fold” value stood at 1.1.

Consider B5, for which the “ON × OFF × kcat/km fold” value turned out to be 1.1.

With B6, the “ON × OFF × kcat/km fold” value was determined as 1.1.

Staying with this data set, now noted: Mesotrione; Table 6.
As to B1, the “Insensitivity parameter, ON × OFF” value amounted to 0.44.

With B2, the “Insensitivity parameter, ON × OFF” value is 0.46.

Consider B3, for which the “Insensitivity parameter, ON × OFF” value stood at 0.46.

As for B4, the “Insensitivity parameter, ON × OFF” value was found to be 0.39.

As for B5, the “Insensitivity parameter, ON × OFF” value was 0.37.

For B6, the “Insensitivity parameter, ON × OFF” value was 0.46.

Staying with this data set, now noted: Sulco (sulcotrione).
Turning to B1, the “ON × OFF × kcat/km fold” value is 1.3.

As to B2, the “ON × OFF × kcat/km fold” value is on record as 1.3.

Regarding B3, the “ON × OFF × kcat/km fold” value is 1.3.

Consider B4, for which the “ON × OFF × kcat/km fold” value came to 1.1.

On to B5, for which the “ON × OFF × kcat/km fold” value is 0.9.

B6: the “ON × OFF × kcat/km fold” value amounted to 0.8.

Still in this data set, the particulars now being: Sulcotrione.
Take B1: the “Insensitivity parameter, ON × OFF” value came to 0.54.

Consider B2, for which the “Insensitivity parameter, ON × OFF” value is reported as 0.56.

As for B3, the “Insensitivity parameter, ON × OFF” value is recorded as 0.55.

Consider B4, for which the “Insensitivity parameter, ON × OFF” value came out at 0.47.

For B5, the “Insensitivity parameter, ON × OFF” value amounted to 0.47.

As to B6, the “Insensitivity parameter, ON × OFF” value is on record as 0.53.

The data set is the same for the next values; noted with them: Table 5; tembotrione.
On to B1, for which the “ON × OFF × kcat, Value” is on record as 6.56.

With B2, the “ON × OFF × kcat, Value” came out at 4.58.

Consider B3, for which the “ON × OFF × kcat, Value” is reported as 5.16.

For the molecule B4, the “ON × OFF × kcat, Value” was 5.63.

For the molecule B5, the “ON × OFF × kcat, Value” was 4.72.

As to B6, the “ON × OFF × kcat, Value” was found to be 5.15.

Still in this data set, the particulars now being: Table 5; tembotrione; fold vs maize wild type HPPD.
In the case of B1, the “ON × OFF × kcat, Fold vs wt” value amounted to 6.13 and the “ON × OFF, fold vs wt” value amounted to 28.7.

Consider B2, for which the “ON × OFF × kcat, Fold vs wt” value came to 4.28 and the “ON × OFF, fold vs wt” value amounted to 27.0.

In the case of B3, the “ON × OFF × kcat, Fold vs wt” value turned out to be 4.82 and the “ON × OFF, fold vs wt” value turned out to be 19.5.

For B4, the “ON × OFF × kcat, Fold vs wt” value came to 5.26 and the “ON × OFF, fold vs wt” value came to 21.2.

As for B5, the “ON × OFF × kcat, Fold vs wt” value amounted to 4.41 and the “ON × OFF, fold vs wt” value came to 25.0.

With B6, the “ON × OFF × kcat, Fold vs wt” value worked out at 4.82 and the “ON × OFF, fold vs wt” value is 28.5.

Still in this data set, the particulars now being: Table 5; tembotrione; insensitivity parameter.
For B1, the “ON × OFF (parameters with tembotrione)” value was found to be 0.15.

In the case of B2, the “ON × OFF (parameters with tembotrione)” value was 0.14.

B3: the “ON × OFF (parameters with tembotrione)” value was determined as 0.10.

For the molecule B4, the “ON × OFF (parameters with tembotrione)” value is 0.11.

As to B5, the “ON × OFF (parameters with tembotrione)” value is recorded as 0.13.

B6: the “ON × OFF (parameters with tembotrione)” value was 0.15.

The same data set, now with this note: Tembotrione.
Regarding B1, the “Insensitivity parameter, ON × OFF” value was found to be 0.16.

B2: the “Insensitivity parameter, ON × OFF” value is 0.15.

B3: the “Insensitivity parameter, ON × OFF” value was determined as 0.15.

Turning to B4, the “Insensitivity parameter, ON × OFF” value is recorded as 0.15.

Regarding B5, the “Insensitivity parameter, ON × OFF” value was determined as 0.22.

Consider B6, for which the “Insensitivity parameter, ON × OFF” value was 0.20.

The same data set, now with this note: Topra (topramezone).
For B1, the “ON × OFF × kcat/km fold” value was found to be 1.1.

With B2, the “ON × OFF × kcat/km fold” value was 1.0.

With B3, the “ON × OFF × kcat/km fold” value was 1.1.

As to B4, the “ON × OFF × kcat/km fold” value turned out to be 1.1.

As for B5, the “ON × OFF × kcat/km fold” value is listed as 1.1.

With B6, the “ON × OFF × kcat/km fold” value is on record as 1.0.

The data set is the same for the next values; noted with them: Topramezon.
As for B1, the “Insensitivity parameter, ON × OFF” value is reported as 0.22.

On to B2, for which the “Insensitivity parameter, ON × OFF” value is listed as 0.21.

Turning to B3, the “Insensitivity parameter, ON × OFF” value came to 0.22.

Turning to B4, the “Insensitivity parameter, ON × OFF” value came to 0.22.

In the case of B5, the “Insensitivity parameter, ON × OFF” value stood at 0.27.

As for B6, the “Insensitivity parameter, ON × OFF” value is reported as 0.29.

Still in this data set, the particulars now being: meso (mesotrione).
With B1, the “ON × OFF × kcat/km fold” value was 1.3.

Consider B2, for which the “ON × OFF × kcat/km fold” value is given as 1.3.

As to B3, the “ON × OFF × kcat/km fold” value is reported as 1.3.

Turning to B4, the “ON × OFF × kcat/km fold” value amounted to 1.1.

Turning to B5, the “ON × OFF × kcat/km fold” value was 0.9.

Turning to B6, the “ON × OFF × kcat/km fold” value amounted to 0.9.

The data set is the same for the next values; noted with them: tembo (tembotrione).
Take B1: the “ON × OFF × kcat/km fold” value is given as 1.2.

On to B2, for which the “ON × OFF × kcat/km fold” value amounted to 1.1.

Consider B3, for which the “ON × OFF × kcat/km fold” value is listed as 1.1.

Turning to B4, the “ON × OFF × kcat/km fold” value is 1.1.

In the case of B5, the “ON × OFF × kcat/km fold” value is 1.1.

For B6, the “ON × OFF × kcat/km fold” value was determined as 1.1.

The test system is the same in another data set. The data set is described as follows: Estimate of kcat from initial rate at saturating hydroxyphenylpyruvate without inhibitor (ON rate ratio assay). Format: biochemical, Z. mays. To be noted: Table 5; single substitutions in Round 7 variant 9070 (SEQ ID NO:2); estimate from initial rate at saturating hydroxyphenylpyruvate without inhibitor. A digest of the protocol: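 Reactions used 60 or 120 nM HPPD and saturating 100 μM hydroxyphenylpyruvate without inhibitor. kcat was estimated from the initial rate at the known enzyme concentration.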
B1: the kcat was 0.745 s⁻¹.

B2: the kcat is 0.555 s⁻¹.

As for B3, the kcat is 0.865 s⁻¹.

As to B4, the kcat was 0.868 s⁻¹.

Consider B5, for which the kcat was 0.615 s⁻¹.

With B6, the kcat was 0.592 s⁻¹.

By Km is commonly meant the concentration of substrate that gives half-maximal velocity. Broadly, the kcat is the maximal rate divided by the concentration of active sites.
